± gives the uncertainty stated by the source.
Assay: self-splicing fitness, log relative to wild type (ln ratio); higher = more splicing; Tetrahymena group I intron in knt gene, E. coli kanamycin selection, DiMSum; sequences stand for … in CUCUCU…GGAGGGAAAAGUUAUCAGGCAUGCACCUGGUAGCUAGUCUUUAAACCAAUAGAUUGCAUCGGUUUAAAAGGCAAGACCGUCAAAUUGCGGGAAAGGGGUCAACAGCCGUUCAGUACCAAGUCUCAGGGGAAACUUUGAGAUGGCCUUGCAAAGGGUAUGGUAAUAAGCUGACGGACAUGGUCCUAACCACGCAGCCAAGUCCUAAGUCAACAGAUCUUCUGUUGAUAUGGAUGCAGUUCACAGACUAAAUGUCGGUCGGGGAAGAUGUAUUCUUCUCAUAAGAUAUAGUCGGACCUCUCCUUAAUGGGAGCUAGCGGAUGAAGUGAUGCAACACUGGAGCCGCUGGGAACUAAUUUGUAUGCGAAAGUAUAUUGAUUAGUUUUGGAGUACUCGUGGUCG
Summary of the method: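 Colonies from six replicate transformations of E. coli BL21(DE3) were pooled and amplicon-sequenced on an Illumina HiSeq 2500. The library placed an intron with all eight P1ex-region nucleotides randomised inside the knt kanamycin-resistance gene on pET-22b(+), and cells grew overnight at 37°C or 30°C on LB agar with or without 25 μg/mL kanamycin (plus 100 μg/mL carbenicillin, 50 μM IPTG, 0.2% rhamnose). Fitness is the DiMSum error-weighted combination of wild-type-normalised replicate fold changes, kanamycin versus none.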

Sequence | self-splicing fitness (ln) (30 °C) | self-splicing fitness (ln) (37 °C)
GCGAAGCAAUAUUACGUUAG | -2.77 ± 0.12 | -2.35 ± 0.15
GCCCAGCAAUAUUACGCACC | -0.112 ± 0.075 | 0.19 ± 0.097
UGCGAGCAAUAUUACGUAUG | -3.11 ± 0.16 | -2.29 ± 0.21
UGUGAGCAAUAUUACGGAUA | -1.65 ± 0.35 | -1.64 ± 0.34
CCCGAGCAAUAUUACGAAUC | -1.59 ± 0.16 | 
CGUAAGCAAUAUUACGCCAU | -3.78 ± 0.24 | -2.7 ± 0.23
GUAGAGCAAUAUUACGGCAU | -0.0916 ± 0.085 | 0.127 ± 0.12
UUGAAGCAAUAUUACGGGCU | -3.02 ± 0.14 | -1.16 ± 0.1
CAACAGCAAUAUUACGUGGA | -3.08 ± 0.13 | -2.08 ± 0.096
CGUCAGCAAUAUUACGUUGU | -3.9 ± 0.23 | -2.12 ± 0.18
GAGUAGCAAUAUUACGAGGU | -2.24 ± 0.35 | 
CCCAAGCAAUAUUACGCUCC |  | -1.68 ± 0.42
CCCCAGCAAUAUUACGGGUC | -2.82 ± 0.11 | -2.43 ± 0.16
UUAAAGCAAUAUUACGGAAA | -0.926 ± 0.092 | -1.29 ± 0.12
GGAUAGCAAUAUUACGUUGA | -3.16 ± 0.24 | -1.25 ± 0.18
AUCCAGCAAUAUUACGACAC | -0.468 ± 0.11 | -0.488 ± 0.16
GGAUAGCAAUAUUACGCAUG | -0.819 ± 0.12 | 0.00525 ± 0.14
UAAUAGCAAUAUUACGAACG | -0.579 ± 0.071 | -0.187 ± 0.082
CCGAAGCAAUAUUACGCCGG |  | -2.21 ± 0.46
CACUAGCAAUAUUACGAUUC | -3.02 ± 0.23 | -1.14 ± 0.26
AUUUAGCAAUAUUACGGGUU |  | -0.906 ± 0.21
GACAAGCAAUAUUACGGCUA | -0.175 ± 0.074 | -0.187 ± 0.079
CGAAAGCAAUAUUACGCCUA | -2.47 ± 0.24 | -0.736 ± 0.14
GGGUAGCAAUAUUACGUGCU | -0.698 ± 0.15 | -0.399 ± 0.19
UUGGAGCAAUAUUACGGACA | -2.52 ± 0.49 | -1.91 ± 0.18

Sequence | self-splicing fitness (ln) (30 °C) | self-splicing fitness (ln) (37 °C)
ACAGAGCAAUAUUACGAAGG | -3.82 ± 0.23 | -3.32 ± 0.33
AUCCAGCAAUAUUACGUAGU | -1.54 ± 0.074 | -0.703 ± 0.093
CGUAAGCAAUAUUACGGCAU | -3.27 ± 0.27 | -2.37 ± 0.15
CUCCAGCAAUAUUACGAUGG | -4.58 ± 0.32 | -3.19 ± 0.26
CCGGAGCAAUAUUACGCCUC |  | -2.47 ± 0.41
ACAUAGCAAUAUUACGCGGC | -3.77 ± 0.18 | -2.8 ± 0.3
GGUUAGCAAUAUUACGGGUU | -1.99 ± 0.1 | -1.48 ± 0.12
GUUCAGCAAUAUUACGCAAU | -1.08 ± 0.16 | -0.106 ± 0.19
UGCUAGCAAUAUUACGAUCA | 0.384 ± 0.07 | 0.522 ± 0.094
AAGGAGCAAUAUUACGAAUC |  | -1.46 ± 0.36
GGGCAGCAAUAUUACGUUCG | -0.761 ± 0.088 | -0.431 ± 0.11
AAGUAGCAAUAUUACGAAAA | -2.83 ± 0.28 | -2.14 ± 0.26
GCCUAGCAAUAUUACGUCCU | -1.68 ± 0.068 | -0.494 ± 0.096
ACGUAGCAAUAUUACGUCUG | -2.47 ± 0.16 | -2.71 ± 0.19
AACGAGCAAUAUUACGGUAU | -4.43 ± 0.22 | -1.85 ± 0.12
AAAUAGCAAUAUUACGUUUU | -2.81 ± 0.11 | -1.05 ± 0.099
GUUUAGCAAUAUUACGCUGA | -3.66 ± 0.33 | -1.6 ± 0.23
UCGGAGCAAUAUUACGCUGC | -3.04 ± 0.38 | 
UACAAGCAAUAUUACGAGGA | -2.98 ± 0.2 | -1.8 ± 0.14
UACGAGCAAUAUUACGCUGC |  | -2.59 ± 0.41
CCAUAGCAAUAUUACGUUUC | -3.12 ± 0.15 | -0.309 ± 0.2
AAGAAGCAAUAUUACGGUAA | -2.01 ± 0.19 | -0.929 ± 0.16
UCGUAGCAAUAUUACGUAAC | -1.64 ± 0.34 | 
AUGUAGCAAUAUUACGAGAU | -2.04 ± 0.14 | -0.409 ± 0.13
CUAUAGCAAUAUUACGAUCG | -0.256 ± 0.075 | 0.439 ± 0.1

Sequence | self-splicing fitness (ln) (30 °C) | self-splicing fitness (ln) (37 °C)
CUCGAGCAAUAUUACGCGAU | -3.25 ± 0.17 | -2.96 ± 0.23
AAGGAGCAAUAUUACGGAGG | -2.97 ± 0.22 | -1.59 ± 0.23
CAGUAGCAAUAUUACGGAGU | -3.34 ± 0.36 | -2.67 ± 0.26
CCAAAGCAAUAUUACGCCAU | -3.42 ± 0.17 | -1.88 ± 0.17
CAACAGCAAUAUUACGGGAU | -3.7 ± 0.15 | -2.08 ± 0.15
AAGAAGCAAUAUUACGGCUC | -1.19 ± 0.12 | -0.0707 ± 0.15
GAAAAGCAAUAUUACGUAGU | -2.02 ± 0.077 | -1.75 ± 0.13
UAGCAGCAAUAUUACGCCCC | -1.6 ± 0.23 | -1.56 ± 0.31
CCACAGCAAUAUUACGGCGU | -3.24 ± 0.21 | -2.75 ± 0.31
GAAAAGCAAUAUUACGGCCC | 0.0394 ± 0.14 | 0.473 ± 0.17
CGUGAGCAAUAUUACGCUAC |  | -0.816 ± 0.38
AUGAAGCAAUAUUACGUAGU | -1.91 ± 0.062 | -0.665 ± 0.092
CUCGAGCAAUAUUACGAUGG | -1.83 ± 0.083 | -1.61 ± 0.1
UAGUAGCAAUAUUACGCGUG | -1.03 ± 0.12 | -0.705 ± 0.15
GGGUAGCAAUAUUACGGGGA | -3.52 ± 0.35 | -2.31 ± 0.38
AGUUAGCAAUAUUACGAGUG | -3.77 ± 0.31 | -1.78 ± 0.25
UCAUAGCAAUAUUACGUAGG | -1.08 ± 0.074 | -1.56 ± 0.096
AUUCAGCAAUAUUACGUUGG | -2.45 ± 0.12 | -1.94 ± 0.13
GUCCAGCAAUAUUACGGCAG |  | -2.06 ± 0.2
AGCGAGCAAUAUUACGGUUA | -1.22 ± 0.12 | -1.9 ± 0.11
AACAAGCAAUAUUACGCGAG | -1.58 ± 0.072 | -0.559 ± 0.067
AUGUAGCAAUAUUACGCCGG | -2.45 ± 0.17 | -0.942 ± 0.33
GAACAGCAAUAUUACGACCA | -0.754 ± 0.12 | -0.113 ± 0.12
ACGGAGCAAUAUUACGAGGG | -3.45 ± 0.25 | -2.82 ± 0.32
AACAAGCAAUAUUACGCUCC | -2.2 ± 0.12 | -0.601 ± 0.13

Sequence | self-splicing fitness (ln) (30 °C) | self-splicing fitness (ln) (37 °C)
GGACAGCAAUAUUACGGAAC | -0.76 ± 0.1 | -0.102 ± 0.11
AAAUAGCAAUAUUACGUAGG | -2.59 ± 0.1 | -1.96 ± 0.1
ACGGAGCAAUAUUACGACAA |  | -1.73 ± 0.45
GGGUAGCAAUAUUACGGCCA | -0.214 ± 0.16 | -0.498 ± 0.24
AACGAGCAAUAUUACGGAGA | -3.61 ± 0.26 | -2.8 ± 0.28
AAGAAGCAAUAUUACGGUCC | -1.1 ± 0.14 | 0.249 ± 0.16
UUUAAGCAAUAUUACGGCGU | -1.29 ± 0.27 | -0.169 ± 0.34
CUAUAGCAAUAUUACGCUAC | -3.66 ± 0.17 | -2.98 ± 0.2
UUGAAGCAAUAUUACGGCUG | 0.342 ± 0.12 | 0.572 ± 0.12
GUUGAGCAAUAUUACGCGUC | -1.59 ± 0.27 | -0.951 ± 0.34
UCACAGCAAUAUUACGAGUG | -2.04 ± 0.09 | -0.607 ± 0.09
GUCGAGCAAUAUUACGCGAA | -1.39 ± 0.17 | 0.0361 ± 0.17
UAAAAGCAAUAUUACGACCA | -0.143 ± 0.092 | 0.711 ± 0.13
ACCUAGCAAUAUUACGCAGU | -2.58 ± 0.17 | -1.53 ± 0.19
GUUCAGCAAUAUUACGGAAU | -2.45 ± 0.19 | -2.46 ± 0.27
GUCUAGCAAUAUUACGAUGG | -3.48 ± 0.17 | -0.823 ± 0.17
GGAGAGCAAUAUUACGCUGG | -2.21 ± 0.29 | -2.41 ± 0.44
CGACAGCAAUAUUACGGUUU | -1.64 ± 0.058 | -0.714 ± 0.084
GUUGAGCAAUAUUACGGCCU | -2.03 ± 0.18 | -0.897 ± 0.2
AAUUAGCAAUAUUACGGUUC | -3.38 ± 0.22 | -2.65 ± 0.26
UAUUAGCAAUAUUACGGCAA | -1.06 ± 0.14 | -0.784 ± 0.15
ACUCAGCAAUAUUACGGGGC | -4.64 ± 0.34 | -2.93 ± 0.44
AAGUAGCAAUAUUACGACGG | -1.74 ± 0.29 | -1.66 ± 0.34
UGGAAGCAAUAUUACGAACA | -0.687 ± 0.13 | -0.937 ± 0.17
